The record followed here is US20210155910, “IMPROVED REVERSE TRANSCRIPTASE AND METHODS OF USE” (YALE UNIVERSITY, published 2021).

The target in this data set is T1, E.r. maturase (MarathonRT) WT (Eubacterium rectale).
T1 chain: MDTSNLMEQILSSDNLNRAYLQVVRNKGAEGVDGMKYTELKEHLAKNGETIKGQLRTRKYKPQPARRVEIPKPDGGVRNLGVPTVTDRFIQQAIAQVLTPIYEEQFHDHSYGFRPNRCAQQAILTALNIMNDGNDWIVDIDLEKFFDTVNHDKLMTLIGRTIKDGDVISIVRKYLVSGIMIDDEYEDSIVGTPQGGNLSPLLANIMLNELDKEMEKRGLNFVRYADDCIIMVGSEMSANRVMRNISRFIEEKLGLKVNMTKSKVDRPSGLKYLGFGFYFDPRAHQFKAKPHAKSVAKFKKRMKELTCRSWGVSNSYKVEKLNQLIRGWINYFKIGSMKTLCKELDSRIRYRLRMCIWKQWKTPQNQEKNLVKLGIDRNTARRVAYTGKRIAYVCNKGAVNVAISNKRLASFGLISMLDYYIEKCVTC
The data set can be described thus: indirect: D4A at 16:1 raises primer incorporation on RepA D3 from 84.1% to 93.0%; Tris pH 8.3, 200 mM KCl, 2 mM MgCl2, 0.6 M trehalose. As to conditions: tags: N-terminal 6xHis-SUMO, cleaved; hairpin. From the text:
The surface of E.r. maturase is enriched with positively charged amino acids, to which primers used for reverse transcription non-specifically binds, and thus the efficiency of primer utilization is compromised. To reduce the non-specific binding, D4A helix (FIG. 12A, originated from E.r. Group II intron) was used in the reaction buffer to block the positively charged residues on the surface of E.r. maturase, attempting to further improve the performance of E.r. maturase in the already optimized buffer (50 mM Tris pH 8.3, 200 mM KCl, 2 mM MgCl₂, 5 mM DTT and 0.6 M trehalose).

B1: D4A helix of E.r. group II intron (ssRNA)
RNA: GUCUCGUAUUGCAGAAAUGACAACAUCUGCCGUAACCAAUCGGGUAAAAGGUGGUCAAAUCAAGCGAGAC
Turning to B1, the binding result is “binds”.
